T1: PUF4 RNA-binding domain (Saccharomyces cerevisiae, UniProt P25339 537-888)
T1 sequence: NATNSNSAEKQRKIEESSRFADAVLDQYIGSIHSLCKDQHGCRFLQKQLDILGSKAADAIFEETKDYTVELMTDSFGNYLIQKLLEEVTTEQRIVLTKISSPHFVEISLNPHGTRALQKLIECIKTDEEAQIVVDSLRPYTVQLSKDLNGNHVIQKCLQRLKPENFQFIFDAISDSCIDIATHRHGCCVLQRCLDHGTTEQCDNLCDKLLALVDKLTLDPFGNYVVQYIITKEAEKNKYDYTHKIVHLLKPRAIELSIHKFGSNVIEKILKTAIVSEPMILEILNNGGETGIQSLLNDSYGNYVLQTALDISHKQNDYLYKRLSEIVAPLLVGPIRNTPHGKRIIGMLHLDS


Biological target: T1, PUF4 RNA-binding domain
Test: Mg; RNA-MaP; 20 mM Na-HEPES pH 7.4, 30 mM KOAc, 0.75 mM MgCl2, 0.1% Tween-20, 5% glycerol, 0.1 mg/mL BSA, 2 mM DTT; 25 C; 0.0125-409.6 nM protein
Details: tags: N-His6-TEV cleaved; C-SNAP kept, Cy3B-labelled; label: tethered on chip by stalled RNA polymerase

Binder	Kd
Id_ii_S2_P4E.2_K4.1_C4.2_[C-2T]_H4.1_A4.1_F4.1_T4.2_[G10T] (ssRNA) RNA: UUUGAUUAAUAUGAUAUCGUUCUUUCUUUUGUAUAUUAUUUUCUUUCUCGAUAUCAUAUUAAUCUUU	0.26 nM
Id_ii_S2_P4E.2_K4.1_C4.2_[T-1G]_H4.1_A4.1_F4.1_T4.2_[G10A]_[T11G] (ssRNA) RNA: UUUGAUUAAUAUGAUAUCGUUCUUUCUCGUGUAUAUUAAGUUCUUUCUCGAUAUCAUAUUAAUCUUU	1.7 nM
Id_ii_S2_P4E.2_K4.1_C4.2_[C-2A]_[T-1A]_H4.1_A4.1_F4.1_T4.2_[G10A]_[T11C] (ssRNA) RNA: UUUGAUUAAUAUGAUAUCGUUCUUUCUAAUGUAUAUUAACUUCUUUCUCGAUAUCAUAUUAAUCUUU	1.96 nM
Id_ii_S2_P4E.2_K4.1_C4.2_[C-2A]_[T-1C]_H4.1_A4.1_F4.1_T4.2_[G10T]_[T11G] (ssRNA) RNA: UUUGAUUAAUAUGAUAUCGUUCUUUCUACUGUAUAUUAUGUUCUUUCUCGAUAUCAUAUUAAUCUUU	1.95 nM
Id_ii_S2_P4E.2_K4.1_C4.2_[C-2A]_[T-1G]_H4.1_A4.1_F4.1_T4.2_[G10A]_[T11A] (ssRNA) RNA: UUUGAUUAAUAUGAUAUCGUUCUUUCUAGUGUAUAUUAAAUUCUUUCUCGAUAUCAUAUUAAUCUUU	1.64 nM
Id_ii_S2_P4E.2_K4.1_C4.2_[C-2A]_[T-1G]_H4.1_A4.1_F4.1_T4.2_[G10T]_[T11C] (ssRNA) RNA: UUUGAUUAAUAUGAUAUCGUUCUUUCUAGUGUAUAUUAUCUUCUUUCUCGAUAUCAUAUUAAUCUUU	2.27 nM
Id_ii_S2_P4E.2_K4.1_C4.2_[C-2A]_H4.1_A4.1_F4.1_T4.2_[G10T]_[T11G] (ssRNA) RNA: UUUGAUUAAUAUGAUAUCGUUCUUUCUAUUGUAUAUUAUGUUCUUUCUCGAUAUCAUAUUAAUCUUU	0.705 nM
Id_ii_S2_P4E.2_K4.1_C4.2_[T-1C]_H4.1_A4.1_F4.1_T4.2_[G10A]_[T11G] (ssRNA) RNA: UUUGAUUAAUAUGAUAUCGUUCUUUCUCCUGUAUAUUAAGUUCUUUCUCGAUAUCAUAUUAAUCUUU	1.63 nM
Id_ii_S2_P4E.2_K4.1_C4.2_[T-1C]_H4.1_A4.1_F4.1_T4.2_[G10T] (ssRNA) RNA: UUUGAUUAAUAUGAUAUCGUUCUUUCUCCUGUAUAUUAUUUUCUUUCUCGAUAUCAUAUUAAUCUUU	0.15 nM
Id_ii_S2_P4E.2_K4.1_C4.2_[T-1G]_H4.1_A4.1_F4.1_T4.2 (ssRNA) RNA: UUUGAUUAAUAUGAUAUCGUUCUUUCUCGUGUAUAUUAGUUUCUUUCUCGAUAUCAUAUUAAUCUUU	0.296 nM
Id_ii_S2_P4E.2_K4.1_C4.2_[C-2T]_H4.1_A4.1_F4.1_T4.2_[T11C] (ssRNA) RNA: UUUGAUUAAUAUGAUAUCGUUCUUUCUUUUGUAUAUUAGCUUCUUUCUCGAUAUCAUAUUAAUCUUU	0.396 nM
Id_ii_S2_P4E.2_K4.1_C4.2_[C-2A]_[T-1C]_H4.1_A4.1_F4.1_T4.2_[G10C] (ssRNA) RNA: UUUGAUUAAUAUGAUAUCGUUCUUUCUACUGUAUAUUACUUUCUUUCUCGAUAUCAUAUUAAUCUUU	1.25 nM
Id_ii_S2_P4E.2_K4.1_C4.2_[T-1G]_H4.1_A4.1_F4.1_T4.2_[G10T] (ssRNA) RNA: UUUGAUUAAUAUGAUAUCGUUCUUUCUCGUGUAUAUUAUUUUCUUUCUCGAUAUCAUAUUAAUCUUU	0.195 nM
Id_ii_S2_P4E.2_K4.1_C4.2_[T-1G]_H4.1_A4.1_F4.1_T4.2_[G10T]_[T11C] (ssRNA) RNA: UUUGAUUAAUAUGAUAUCGUUCUUUCUCGUGUAUAUUAUCUUCUUUCUCGAUAUCAUAUUAAUCUUU	0.286 nM
Id_ii_S2_P4E.2_K4.1_C4.2_[C-2A]_[T-1A]_H4.1_A4.1_F4.1_T4.2_[G10C]_[T11C] (ssRNA) RNA: UUUGAUUAAUAUGAUAUCGUUCUUUCUAAUGUAUAUUACCUUCUUUCUCGAUAUCAUAUUAAUCUUU	2.15 nM
Id_ii_S2_P4E.2_K4.1_C4.2_[T-1C]_H4.1_A4.1_F4.1_T4.2_[G10C] (ssRNA) RNA: UUUGAUUAAUAUGAUAUCGUUCUUUCUCCUGUAUAUUACUUUCUUUCUCGAUAUCAUAUUAAUCUUU	0.482 nM
Id_ii_S2_P4E.2_K4.1_C4.2_[C-2A]_[T-1C]_H4.1_A4.1_F4.1_T4.2_[G10A]_[T11A] (ssRNA) RNA: UUUGAUUAAUAUGAUAUCGUUCUUUCUACUGUAUAUUAAAUUCUUUCUCGAUAUCAUAUUAAUCUUU	0.702 nM
Id_ii_S2_P4E.2_K4.1_C4.2_[C-2A]_[T-1G]_H4.1_A4.1_F4.1_T4.2_[G10T]_[T11G] (ssRNA) RNA: UUUGAUUAAUAUGAUAUCGUUCUUUCUAGUGUAUAUUAUGUUCUUUCUCGAUAUCAUAUUAAUCUUU	1.63 nM
Id_ii_S2_P4E.2_K4.1_C4.2_[T-1C]_H4.1_A4.1_F4.1_T4.2_[G10T]_[T11A] (ssRNA) RNA: UUUGAUUAAUAUGAUAUCGUUCUUUCUCCUGUAUAUUAUAUUCUUUCUCGAUAUCAUAUUAAUCUUU	0.342 nM
Id_ii_S2_P4E.2_K4.1_C4.2_[C-2T]_H4.1_A4.1_F4.1_T4.2 (ssRNA) RNA: UUUGAUUAAUAUGAUAUCGUUCUUUCUUUUGUAUAUUAGUUUCUUUCUCGAUAUCAUAUUAAUCUUU	0.456 nM
Id_ii_S2_P4E.2_K4.1_C4.2_[C-2A]_[T-1C]_H4.1_A4.1_F4.1_T4.2_[G10T] (ssRNA) RNA: UUUGAUUAAUAUGAUAUCGUUCUUUCUACUGUAUAUUAUUUUCUUUCUCGAUAUCAUAUUAAUCUUU	0.296 nM
Id_ii_S2_P4E.2_K4.1_C4.2_[C-2A]_[T-1A]_H4.1_A4.1_F4.1_T4.2_[G10A]_[T11G] (ssRNA) RNA: UUUGAUUAAUAUGAUAUCGUUCUUUCUAAUGUAUAUUAAGUUCUUUCUCGAUAUCAUAUUAAUCUUU	8.86 nM
